{"source": "patent US10975142B2", "about": "“Endotrophin neutralization and use thereof” (THE BOARD OF REGENTS OF THE UNIVERSITY OF TEXAS SYSTEM, priority 2013, dated 2021)", "tested_on": "PyMT mice", "test": "10B6 treatment of PyMT mice, tumor growth", "assay_type": "in vivo", "conditions": "10B6 200 μg/mouse i.p. twice weekly, 9 to 13 weeks of age, vs isotype control IgG", "method": "FIGS. 8A-8I: 10B6 blocks ETP-mediated stromal expansion in vivo. (FIG. 8A) 10B6 (200 μg/mouse) was i.p. injected twice weekly into PyMT mice from 9 to 13 weeks of age. Tumor growth (mean±SEM; n=4-6 per group) was determined by weekly caliper measurements. *P<0.05, **P<0.01, ***P<0.001 vs. IgG control, 2-way ANOVA. (FIG. 8B) Primary mammary epithelial cancer cells were isolated from 12-week-old FP635/PyMT and FP635/PyMT/ETP mice and implanted into WT recipients with the same volume of Matrigel. For the 10B6 group, 10B6 was added in a Matrigel plug (10 μg/plug) admixed with ETP^+-cancer cells (i.e., ETP^+/10B6). A representative whole-body image was acquired 25 days after implantation using IVIS fluorescence scanner. Artificial color indicates fluorescence signal intensity accounts for tumor volume (AU). Quantitative results are represented as mean±SEM (n=3 per group). *P<0.05, unpaired t test. […] Quantified results in FIGS. 8D-8I are mean±SEM (multiple images, n=3 per group). *P<0.05, **P<0.01, unpaired t test. […]\nTumor onset was monitored twice weekly by palpation. Tumor sizes were measured with a digital caliper twice weekly and the volumes were calculated as […]. […] Metastatic tumor growth was determined by histological analysis with H&E stained lung tissues.", "data": [{"molecule": "10B6: rat anti-mouse endotrophin monoclonal antibody; light chain variable SEQ ID NO: 2, heavy chain variable SEQ ID NO: 4 (antibody, V domains shown) VH: QVQLQQSGPELAKPGSSVKISCKASGYTFTSYEMHWIKQRPGQGLEWIGYIYPESGSTGYNEKFKGKATLTVDKSSPTAYMQLSSLTPDNSAVYFCTRGLRVLGYVMDVWGHGTSVTVSS VL: DVQLTQSPSFLSASVGDRVTINCKASQNINKYLNWYQQKLGEAPKRLIYNTNNLQTGIPSRFSGSASGTDYTLTISSLHPEDFATYFCLQHSSLYTFGAGTKLELK", "values": [{"measurement": "tumor growth", "result": "significantly attenuated"}]}]}
